Assays:
[1] = molecular target: T1, Human CLEC12A on cells (HL60, CLEC12A-CHO-K1, primary blood, bone marrow and AML cells) (human, UniProt Q5QGZ9 1-265); assay: cell-based or functional assay
T1 sequence: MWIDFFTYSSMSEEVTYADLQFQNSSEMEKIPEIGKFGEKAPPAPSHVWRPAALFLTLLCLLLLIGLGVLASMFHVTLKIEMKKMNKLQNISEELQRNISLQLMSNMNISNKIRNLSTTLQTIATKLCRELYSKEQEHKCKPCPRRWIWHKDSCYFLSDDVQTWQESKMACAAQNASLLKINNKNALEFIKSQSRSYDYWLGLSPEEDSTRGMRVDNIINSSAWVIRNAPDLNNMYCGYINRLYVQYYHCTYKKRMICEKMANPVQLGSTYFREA

[2] = molecular target: T1, Human CLEC12A on cells (HL60, …); assay: cell-based or functional assay; remark: listed apart in the source
[3] = molecular target: T1, Human CLEC12A on cells (HL60, …); assay: cell-based or functional assay; remark: listed apart in the source
[4] = molecular target: T2, Recombinant purified CLEC12A-His (Sino Biologicals) (human, UniProt Q5QGZ9 65-265); assay: SPR (Biacore T100); antibody captured on CM5 chip through mouse anti-human IgG, recombinant CLEC12A-His run over the surface
T2 construct: Bought protein; 11896-H07H; not shown: His tag
T2 sequence: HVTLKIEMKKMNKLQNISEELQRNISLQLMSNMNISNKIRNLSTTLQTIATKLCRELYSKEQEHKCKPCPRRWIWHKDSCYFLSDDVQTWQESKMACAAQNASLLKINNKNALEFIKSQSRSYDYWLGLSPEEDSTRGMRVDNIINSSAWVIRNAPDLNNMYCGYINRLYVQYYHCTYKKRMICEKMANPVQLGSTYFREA

B1: Antibody MF4327×MF5196, full length human IgG1 CLEC12AxCD3 bispecific antibody with silenced Fc effector function (bispecific antibody, V domains shown)
VH 1: QVQLVQSGAEVKKPGASVKVSCKASGYTFTSYYMHWVRQAPGQGLEWMGIINPSGGSTSYAQKFQGRVTMTRDTSTSTVYMELSSLRSEDTAVYYCAKGTTGDWFDYWGQGTLVTVSS
VH 2: QVQLVQSGGGVVQPGRSLRLSCVASGFTFSSYGMHWVRQAPGKGLEWVAAIWYNARKQDYADSVKGRFTISRDNSKNTLYLQMNSLRAEDTAVYYCTRGTGYNWFDPWGQGTLVTVSS
VL: not shown
notes: Full length human IgG1 with a common light chain; The CH3 domains are engineered for heterodimerisation, and changes in the CH2 regions remove Fc effector function; also called CLEC12AxCD3 bispecific IgG; Fcγ receptor-silenced antibody MF4327×MF5196
median fold T cell expansion in primary AML samples, day 10 [1]: 48 fold | CD25 on CD4 T cells, mean EC50 (HL60 cytotoxicity assay) [2]: 0.351 µg/mL | CD25 on CD8 T cells, mean EC50 (HL60 cytotoxicity assay) [2]: 0.0957 µg/mL | CD69 on CD4 T cells, mean EC50 (HL60 cytotoxicity assay) [2]: 0.156 µg/mL | CD69 on CD8 T cells, mean EC50 (HL60 cytotoxicity assay) [2]: 0.0444 µg/mL | HL60 cell lysis, mean EC50 [2]: 0.0682 µg/mL | fold T cell expansion, primary AML sample of patient 10, day 10 [3]: 25 fold | fold T cell expansion, primary AML sample of patient 11, day 10 [3]: 6 fold | fold T cell expansion, primary AML sample of patient 12, day 10 [3]: 37 fold | fold T cell expansion, primary AML sample of patient 13, day 10 [3]: 139 fold | fold T cell expansion, primary AML sample of patient 14, day 10 (1,000 ng/mL) [3]: 64 fold | fold T cell expansion, primary AML sample of patient 15, day 10 (1,000 ng/mL) [3]: 25 fold | fold T cell expansion, primary AML sample of patient 16, day 10 [3]: 15 fold | fold T cell expansion, primary AML sample of patient 17, day 10 [3]: 98 fold | fold T cell expansion, primary AML sample of patient 18, day 10 [3]: 20 fold | fold T cell expansion, primary AML sample of patient 19, day 10 [3]: 60 fold | fold T cell expansion, primary AML sample of patient 20, day 10 (1,000 ng/mL) [3]: 157 fold | Kd [4]: 3 nM

Reference: US20240262912A1 (MERUS N V, published 2024)
